From US20150093336A1 (VIB VZW, published 2015)

B1: NbhmMMRm27.95 (VHH)
VHH: QVQLQESGGRLGAAGGSLRLSCTASGFPFNIYPMSWVRQAPGKGFEWVSYISHGGTTTDYSDAVKGRFTISRDNAKNRLYLQMDSLKPEDTAVYFCAQGYARLMTDSELVRGQGTQVTVSS
notes: Only tested as periplasmic extract in PE-ELISA; clone carries C-terminal HA and 6xHis tag
B2: NbhmMMRm18.63 (VHH)
VHH: QVQLQESGGGLVQPGGSLRLSCAPSGSIISINAMAWYRQAPGKERELVAAISSGGSTYYADSVKGRFTISGDIAKNLLWLQMNSLKPEDTAMYYCAPGGGWRPGAWGQGTQVTVSS
notes: as for B1
B3: NbhmMMRm25.86 (VHH)
VHH: QVQLQESGGGLVQPGGSLRLSCAGSGFTVSTSMINWARQVPGKELEWLVDVLPSGSTYYADPVKGRFTISRDNAQNTIYLQMNYLKPEDTAIYYCAINRETMPPFRGQGTQVTVSS
notes: as for B1
B4: NbhmMMRm8.67 (VHH)
VHH: QVQLQESGGGLVQAGDSLRLSCLATGSMFSINAWGWYRQAPGKQRELVASITSGGGSTEYAESVKGRFTISRDSAKNMLYLQMNSLRPEDTAVYYCNAERWDGYALGYSPNHGSGHRPYNYWGQGTQVTVSS
notes: as for B1
B5: NbhmMMRm13.89 (VHH)
VHH: QVQLQESGGGLVQPGGSLRLSCAASGSIFSINAWGWYRQAPGKQRELVAEITSSGSTNYADSVKGRFTISGDNAKNSVYLHMNNLEPEDTAVYYCKAVAVTFTTPRSDYWGRGTQVTVSS
notes: as for B1

Target: T1, Recombinant mouse MMR (R&D systems) (mouse, UniProt Q61830 20-1388)
T1 construct: Antigen of the PE-ELISA and the SPR; also called mMMR; recombinant mMMR
T1 sequence: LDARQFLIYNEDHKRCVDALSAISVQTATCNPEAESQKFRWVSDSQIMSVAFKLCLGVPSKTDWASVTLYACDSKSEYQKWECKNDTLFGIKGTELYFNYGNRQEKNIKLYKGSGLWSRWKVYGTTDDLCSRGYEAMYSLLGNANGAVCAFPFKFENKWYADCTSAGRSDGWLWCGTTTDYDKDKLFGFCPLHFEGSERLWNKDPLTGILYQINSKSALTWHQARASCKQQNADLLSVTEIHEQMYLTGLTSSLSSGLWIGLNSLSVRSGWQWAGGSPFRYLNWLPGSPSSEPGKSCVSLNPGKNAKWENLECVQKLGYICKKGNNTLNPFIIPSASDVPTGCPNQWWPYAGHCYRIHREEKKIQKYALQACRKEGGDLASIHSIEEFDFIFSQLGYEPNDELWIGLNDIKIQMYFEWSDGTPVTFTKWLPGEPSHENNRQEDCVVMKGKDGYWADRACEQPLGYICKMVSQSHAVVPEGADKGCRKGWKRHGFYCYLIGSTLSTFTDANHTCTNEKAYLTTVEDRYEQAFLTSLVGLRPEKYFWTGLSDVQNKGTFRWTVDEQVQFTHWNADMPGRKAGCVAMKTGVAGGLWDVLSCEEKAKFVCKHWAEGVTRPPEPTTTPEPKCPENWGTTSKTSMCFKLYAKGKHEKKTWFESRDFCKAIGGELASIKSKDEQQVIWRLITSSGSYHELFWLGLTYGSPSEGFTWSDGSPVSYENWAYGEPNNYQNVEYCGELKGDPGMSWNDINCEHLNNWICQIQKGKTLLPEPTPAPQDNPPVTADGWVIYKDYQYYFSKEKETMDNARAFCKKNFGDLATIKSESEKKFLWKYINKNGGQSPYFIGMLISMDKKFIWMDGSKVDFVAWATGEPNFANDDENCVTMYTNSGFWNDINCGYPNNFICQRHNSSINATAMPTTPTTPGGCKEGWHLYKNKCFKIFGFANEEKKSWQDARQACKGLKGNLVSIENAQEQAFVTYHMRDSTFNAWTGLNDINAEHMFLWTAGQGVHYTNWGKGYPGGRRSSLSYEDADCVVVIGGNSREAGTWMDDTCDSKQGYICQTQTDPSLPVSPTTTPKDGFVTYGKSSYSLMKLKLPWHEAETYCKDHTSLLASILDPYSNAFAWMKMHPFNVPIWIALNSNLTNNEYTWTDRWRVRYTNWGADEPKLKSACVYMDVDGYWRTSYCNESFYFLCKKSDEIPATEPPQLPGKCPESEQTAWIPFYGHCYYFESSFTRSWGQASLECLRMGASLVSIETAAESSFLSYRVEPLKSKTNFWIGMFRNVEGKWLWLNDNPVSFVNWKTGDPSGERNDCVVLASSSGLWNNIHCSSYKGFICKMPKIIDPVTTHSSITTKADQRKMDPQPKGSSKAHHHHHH
Assay: PE-ELISA: periplasmic extract of the clone on plate-coated mouse MMR, OD405; background = irrelevant milk-blocking proteins
Procedure: (§1) Specific sdAb phages were enriched by several consecutive rounds of in vitro selection on antigen coated to wells of microtiter plates (Nunc). For isolation of human/mouse MMR cross-reactive Nbs, screening was performed using human and mouse MMR alternatingly. Bound phage particles were eluted with 100 mM triethylamine (pH 11.0), immediately neutralized with 1 M Tris-HCl (pH 7.4) and used to infect E. coli TG1 cells. Individual colonies were picked and expression of recombinant sdAb-M13 protein III by addition of 1 mM isopropyl-β-D-thiogalac-topyranoside (IPTG). The periplasmic extract of each clone was subsequently tested in ELISA for human MMR recognition with non-specific antigen coated wells serving as a negative control. Human/mouse MMR cross-reactive Nbs were also screened in a similar fashion against mouse MMR, only clones reactive with both human and mouse antigens were withheld as cross-reactive Nbs. Each ELISA was performed on plates coated with 1 μg/ml MMR in 100 mM NaHCO₃ buffer pH=8.8. After coating the plates are washed with PBS+0.05% TWEEN®-20 (PBST) and blocked for 2 hours with PBS+0.05% TWEEN® 20+2% non-fat dry milk powder (Nestle) (PBSM). The PE extracts are then incubated for 1 hour on the plate and then washed with PBST followed by 1 hour incubation of 0.5 μg/ml mouse anti-HA tag antibody (16B12, Covance) in PBSM. After washing with PBST, 1.5 μg/ml alkaline phosphatase conjugated anti-mouse antibody (Sigma) in PBSM in added to the plate for 1 hour followed by PBST washing. Finally, the ELISA is developed using 2 mg/ml alkaline phosphatase substrate (Sigma) in AP-buffer (100 mM NaCl, 50 mM MgCl₂, 100 mM Tris pH=9.5) and the optical density signal at 405 nm is measured.
(§2) Next, anti-human/mouse MMR cross-reactive sdAbs were generated (see also Material and Method section). The anti-human/anti mouse MMR phage bank was alternatingly screened on human and mouse MMR for a total of four rounds, resulting in up to 100-fold enrichments for hMMR/mMMR reactive phages from the second panning round. Therefore, 188 colonies from the second and third rounds were selected for PE-expression. These PE-extracts were used in PE-ELISAs to determine which clones react effectively to MMR, clones were selected after the ELISA on hMMR (FIG. 2). These clones were then screened for binding on mouse MMR (FIG. 3).

Binding result, binds:
B1, B2, B3, B4, B5

Target: T2, Recombinant human MMR (R&D systems) (human, UniProt P22897 19-1383)
T2 construct: Antigen of the PE-ELISA and the SPR; also called hMMR; recombinant hMMR
T2 sequence: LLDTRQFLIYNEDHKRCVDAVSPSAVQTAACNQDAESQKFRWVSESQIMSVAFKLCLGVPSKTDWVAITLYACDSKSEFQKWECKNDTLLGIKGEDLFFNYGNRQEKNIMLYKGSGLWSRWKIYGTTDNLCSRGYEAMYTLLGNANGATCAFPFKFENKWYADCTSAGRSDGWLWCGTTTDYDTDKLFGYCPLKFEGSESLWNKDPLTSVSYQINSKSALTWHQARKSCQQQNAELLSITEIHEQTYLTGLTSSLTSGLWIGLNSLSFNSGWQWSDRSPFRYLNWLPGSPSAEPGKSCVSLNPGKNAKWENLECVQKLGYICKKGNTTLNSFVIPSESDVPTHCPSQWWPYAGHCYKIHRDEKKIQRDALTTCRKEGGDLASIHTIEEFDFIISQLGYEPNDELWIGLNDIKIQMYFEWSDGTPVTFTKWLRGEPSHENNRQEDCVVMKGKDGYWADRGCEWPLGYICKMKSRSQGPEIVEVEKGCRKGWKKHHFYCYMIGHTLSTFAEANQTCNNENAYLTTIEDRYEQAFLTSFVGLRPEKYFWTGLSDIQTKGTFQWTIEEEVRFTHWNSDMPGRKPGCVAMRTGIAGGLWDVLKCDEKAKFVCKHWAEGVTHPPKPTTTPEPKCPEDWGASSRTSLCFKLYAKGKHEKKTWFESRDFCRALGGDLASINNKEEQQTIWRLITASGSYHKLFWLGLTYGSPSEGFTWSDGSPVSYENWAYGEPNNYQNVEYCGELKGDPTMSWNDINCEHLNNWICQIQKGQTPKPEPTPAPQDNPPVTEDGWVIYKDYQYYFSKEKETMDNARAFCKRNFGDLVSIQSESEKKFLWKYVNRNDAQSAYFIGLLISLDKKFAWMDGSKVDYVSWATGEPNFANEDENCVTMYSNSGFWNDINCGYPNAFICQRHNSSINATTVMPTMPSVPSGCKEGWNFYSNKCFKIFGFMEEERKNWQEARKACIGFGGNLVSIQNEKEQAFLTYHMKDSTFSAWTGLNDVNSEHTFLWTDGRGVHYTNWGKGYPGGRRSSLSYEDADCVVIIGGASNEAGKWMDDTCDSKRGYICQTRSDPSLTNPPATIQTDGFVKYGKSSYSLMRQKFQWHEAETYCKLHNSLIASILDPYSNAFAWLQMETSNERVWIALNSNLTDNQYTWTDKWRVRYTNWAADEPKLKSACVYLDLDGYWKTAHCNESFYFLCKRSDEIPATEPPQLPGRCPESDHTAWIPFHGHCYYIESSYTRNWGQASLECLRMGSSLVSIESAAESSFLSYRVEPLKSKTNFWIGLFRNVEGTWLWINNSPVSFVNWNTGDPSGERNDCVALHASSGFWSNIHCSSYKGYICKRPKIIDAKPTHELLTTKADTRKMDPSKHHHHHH
Assay: PE-ELISA: periplasmic extract of the clone on plate-coated human MMR, OD405; background = irrelevant milk-blocking proteins
Procedure: as §1, §2

Binding result, binds:
B1, B2, B3, B4, B5
